Data: publication PMC12172446, “Murine norovirus allosteric escape mutants mimic gut activation” (Journal of Virology, 2025)

Biological target: the molecule itself
Assay: cryo-EM structure; purified virions, ~1 mg/mL, in 30 mM HEPES pH 7.4, 100 mM NaCl; nothing, CaCl2 or 10 mM GCDCA added (V339I), nothing added (D348E); icosahedral reconstruction of the capsid

B1: Murine norovirus MNV-1 capsid protein VP1, V339I escape mutant (in purified virions) (natural protein, murine norovirus (MNV-1, genotype GV.1), UniProt Q80J94 1-541, looked up)
chain: MRMSDGAAPKANGSEASGQDLVPAAVEQAVPIQPVAGAALAAPAAGQINQIDPWIFQNFVQCPLGEFSISPRNTPGEILFDLALGPGLNPYLAHLSAMYTGWVGNMEVQLVLAGNAFTAGKVVVALVPPYFPKGSLTTAQITCFPHVMCDVRTLEPIQLPLLDVRRVLWHATQDQEESMRLVCMLYTPLRTNSPGDESFVVSGRLLSKPAADFNFVYLTPPIERTIYRMVDLPVIQPRLCTHARWPAPVYGLLVDPSLPSNPQWQNGRVHVDGTLLGTTPISGSWVSCFAAEAAYKFQSGTGEVATFTLIEQDGSAYVPGDRAAPLGYPDFSGQLEIEIQTETTKTGDKLKVTTFEMILGPTTNADQAPYQGRVFASVTAAASLDLVDGRVRAVPRSIYGFQDTIPEYNDGLLVPLAPPIGPFLPGEVLLRFRTYMRQIDTADAAAEAIDCALPQEFVSWFASNAFTVQSEALLLRYRNTLTGQLLFECKLYNEGYIALSYSGSGPLTFPTDGIFEVVSWVPRLYQLASVGSLATGRMLKQ
notes: Capsid protein VP1 (~58 kDa; N-terminal, shell and protruding domains) of murine norovirus MNV-1, as it stands in the purified virion, with the escape mutation V339I on the C'D' loop; also called V339I mutant virus; apo V339I; source: BV-2 cells infected with the MNV-1 mutant; virions purified (PEG precipitation, ultracentrifugation, sucrose gradient); copies: 180
B1: binds.

B2: Murine norovirus MNV-1 capsid protein VP1, D348E escape mutant (in purified virions) (natural protein, murine norovirus (MNV-1, genotype GV.1), UniProt Q80J94 1-541, looked up)
chain: MRMSDGAAPKANGSEASGQDLVPAAVEQAVPIQPVAGAALAAPAAGQINQIDPWIFQNFVQCPLGEFSISPRNTPGEILFDLALGPGLNPYLAHLSAMYTGWVGNMEVQLVLAGNAFTAGKVVVALVPPYFPKGSLTTAQITCFPHVMCDVRTLEPIQLPLLDVRRVLWHATQDQEESMRLVCMLYTPLRTNSPGDESFVVSGRLLSKPAADFNFVYLTPPIERTIYRMVDLPVIQPRLCTHARWPAPVYGLLVDPSLPSNPQWQNGRVHVDGTLLGTTPISGSWVSCFAAEAAYKFQSGTGEVATFTLIEQDGSAYVPGDRAAPLGYPDFSGQLEIEVQTETTKTGEKLKVTTFEMILGPTTNADQAPYQGRVFASVTAAASLDLVDGRVRAVPRSIYGFQDTIPEYNDGLLVPLAPPIGPFLPGEVLLRFRTYMRQIDTADAAAEAIDCALPQEFVSWFASNAFTVQSEALLLRYRNTLTGQLLFECKLYNEGYIALSYSGSGPLTFPTDGIFEVVSWVPRLYQLASVGSLATGRMLKQ
notes: Capsid protein VP1 (~58 kDa; N-terminal, shell and protruding domains) of murine norovirus MNV-1, as it stands in the purified virion, with the escape mutation D348E on the C'D' loop; also called D348E virus; apo D348E; source: BV-2 cells infected with the MNV-1 mutant; virions purified (PEG precipitation, ultracentrifugation, sucrose gradient); copies: 180
B2: binds.
